# Source: publication PMC11798926 (2024)
# B1: myc-tagged SynDIG4 (wild type) [rat] / HA-tagged μ2 AP subunit [not stated] (parent complex)
# chain 1: MSSEKSGLPDSVPHTSPPPYNAPQPPAEPPIPPPQTAPSSHHHHHHHYHQSGTATLPRLGAGGLASAAAGAQRGPSSSATLPRPPHHAPPGPAAGAPPPGCATLPRMPPDPYLQETRFEGPLPPPPPAAAAPPPPAPAPTAQAPGFVVPTHAGAVGTLPLGGYVAPGYPLQLQPCTAYVPVYPVGTPYASGTPGGPGVTSTLPPPPQGPGLALLEPRRPPHDYMPIAVLTTICCFWPTGIIAIFKAVQVRTALARGDLVSAEIASREARNFSFISLAVGIAAMVLCTILTVVIIIAAQHHENYWDP
# chain 2: MIGGLFIYNHKGEVLISRVYRDDIGRNAVDAFRVNVIHARQQVRSPVTNIARTSFFHVKRSNIWLAAVTKQNVNAAMVFEFLYKMCDVMAAYFGKISEENIKNNFVLIYELLDEILDFGYPQNSETGALKTFITQQGIKSQHQTKEEQSQITSQVTGQIGWRREGIKYRRNELFLDVLESVNLLMSPQGQVLSAHVSGRVVMKSYLSGMPECKFGMNDKIVIEKQGKGTADETSKSGKQSIAIDDCTFHQCVRLSKFDSERSISFIPPDGEFELMRYRTTKDIILPFRVIPLVREVGRTKLEVKVVIKSNFKPSLLAQKIEVRIPTPLNTSGVQVICMKGKAKYKASENAIVWKIKRMAGMKESQISAEIELLPTNDKKKWARPPISMNFEVPFAPSGLKVRYLKVFEPKLNYSDHDVIKWVRYIGRSGIYETRC
# Variants of: B1
# Assay: co-immunoprecipitation (IP: HA, blot: myc), quantified; HEK293T cells; second bar chart of panel D (SD4 vs AMPA); parent: 100; read off a plot
row,Variant,percent of parent [%SD4]
1,"chain 1 Y223A, chain 1 I226A",~65
